In US20260167959A1, “APTAZYME-BASED REGULATABLE GENE EXPRESSION SYSTEMS” (REJUVENATE BIO INC, priority 2022, published 2026):
Residue numbers refer to the chain shown, from its start.

B1: RA409 (nucleic acid)
DNA: GCGCGTCCTGGATTCGCCGAGAATACCAGCATCGTCTTGATGCCCTTGGAAGTCTCGGGAAACGCGTACATCCAGCTGACGAGTCCCAAATAGGACGAAACGCGC
modifications: expressed or natural sequence
B2: RA399 (nucleic acid)
DNA: GCGCGTCCTGGATTCGCGGAAACGCGTACATCCACGAGAATACCAGCATCGTCTTGATGCCCTTGGAAGTCTCGGCTGACGAGTCCCAAATAGGACGAAACGCGC
modifications: expressed or natural sequence
B3: RA405 (nucleic acid)
DNA: GCGCGTCCTGGATTCGCGGAAACGCGTACGAGAATACCAGCATCGTCTTGATGCCCTTGGAAGTCTCGCATCCAGCTGACGAGTCCCAAATAGGACGAAACGCGC
modifications: expressed or natural sequence
B4: RA390 (nucleic acid)
DNA: GCGCGTCCGGAATACCAGCATCGTCTTGATGCCCTTGGAAGTCCGGCCTGGATTCGCGGAAACGCGTACATCCAGCTGACGAGTCCCAAATAGGACGAAACGCGC
modifications: expressed or natural sequence
B5: RA394 (nucleic acid)
DNA: GCGCGTCCTGGATTCGCAGAATACCAGCATCGTCTTGATGCCCTTGGAAGTCTGGAAACGCGTACATCCAGCTGACGAGTCCCAAATAGGACGAAACGCGC
modifications: expressed or natural sequence
B6: RA398 (nucleic acid)
DNA: GCGCGTCCTGGATTCGCGGACGAGAATACCAGCATCGTCTTGATGCCCTTGGAAGTCTCGAACGCGTACATCCAGCTGACGAGTCCCAAATAGGACGAAACGCGC
modifications: expressed or natural sequence
B7: RA403 (nucleic acid)
DNA: GCGCGTCCTCGGAATACCAGCATCGTCTTGATGCCCTTGGAAGTCCGGGATTCGCGGAAACGCGTACATCCAGCTGACGAGTCCCAAATAGGACGAAACGCGC
modifications: expressed or natural sequence
B8: RA387 (nucleic acid)
DNA: GCGCGTCCTGGATTCGCGGAAACGCGCCGGAATACCAGCATCGTCTTGATGCCCTTGGAAGTCCGGTACATCCAGCTGACGAGTCCCAAATAGGACGAAACGCGC
modifications: expressed or natural sequence
B9: RA404 (nucleic acid)
DNA: GCGCGTCCTGGATTCGCGGAAGGAATACCAGCATCGTCTTGATGCCCTTGGAAGTCCACGCGTACATCCAGCTGACGAGTCCCAAATAGGACGAAACGCGC
modifications: expressed or natural sequence
B10: RA388 (nucleic acid)
DNA: GCGCGTCCTGAGTGATACCAGCATCGTCTTGATGCCCTTGGCAGCACTGATTCGCGGAAACGCGTACATCCAGCTGACGAGTCCCAAATAGGACGAAACGCGC
modifications: expressed or natural sequence
B11: RA393 (nucleic acid)
DNA: GCGCGTCCTGGATTCGCGGAAACGCGTACATCCAGCTGACGAGTCCCAAATAGGCGGAATACCAGCATCGTCTTGATGCCCTTGGAAGTCCGACGAAACGCGC
modifications: expressed or natural sequence
B12: RA401 (nucleic acid)
DNA: GCGCGTCCTGGATTCGCGGAAACGCGCGGAATACCAGCATCGTCTTGATGCCCTTGGAAGTCCGTACATCCAGCTGACGAGTCCCAAATAGGACGAAACGCGC
modifications: expressed or natural sequence
B13: RA400 (nucleic acid)
DNA: GCGCGTCCTGGATTCGCGGAACCGGAATACCAGCATCGTCTTGATGCCCTTGGAAGTCCGGACGCGTACATCCAGCTGACGAGTCCCAAATAGGACGAAACGCGC
modifications: expressed or natural sequence
B14: RA408 (nucleic acid)
DNA: GCGCGTCCTGGATTCGCGGAAACGCGGGAATACCAGCATCGTCTTGATGCCCTTGGAAGTCCTACATCCAGCTGACGAGTCCCAAATAGGACGAAACGCGC
modifications: expressed or natural sequence
B15: RA392 (nucleic acid)
DNA: GCGCGTCCTGGATTCGCGGACGGAATACCAGCATCGTCTTGATGCCCTTGGAAGTCCGAACGCGTACATCCAGCTGACGAGTCCCAAATAGGACGAAACGCGC
modifications: expressed or natural sequence
B16: RA396 (nucleic acid)
DNA: GCGCGTCCTGGATTCGCGGAAACGCGTACATCCAGCTGCGGAATACCAGCATCGTCTTGATGCCCTTGGAAGTCCGACGAGTCCCAAATAGGACGAAACGCGC
modifications: expressed or natural sequence
B17: RA406 (nucleic acid)
DNA: GCGCGTCCTGGATTCGCGGAAACGCGTACATCCAGCTGACGAGTCCCCGGAATACCAGCATCGTCTTGATGCCCTTGGAAGTCCGAAATAGGACGAAACGCGC
modifications: expressed or natural sequence
B18: RA410 (nucleic acid)
DNA: B17 DNA with C48A, G50T, A51G, A79C, T82C, C83A, G85T
modifications: expressed or natural sequence
B19: RA389 (nucleic acid)
DNA: GCGCGTCCTGGATTCGCGGAAACGCGTACCGGAATACCAGCATCGTCTTGATGCCCTTGGAAGTCCGATCCAGCTGACGAGTCCCAAATAGGACGAAACGCGC
modifications: expressed or natural sequence
B20: RA386 (nucleic acid)
DNA: GCGCGTCCTGGATTCGCGGAAACGCGTACATCCAGCTGACGGGAATACCAGCATCGTCTTGATGCCCTTGGAAGTCCAGTCCCAAATAGGACGAAACGCGC
modifications: expressed or natural sequence
B21: RA391 (nucleic acid)
DNA: GCGCGTCCTGGATTCGCGGAAACGCGTACATCCAGCTGACGAGTCCCAGAGAATACCAGCATCGTCTTGATGCCCTTGGAAGTCTCAATAGGACGAAACGCGC
modifications: expressed or natural sequence
B22: RA397 (nucleic acid)
DNA: GCGCGTCCTGGATTCGCGGAAACGCGTACATCCAGCTGACGAGTCCCAAATAGGACGAAACGCGCCGGAATACCAGCATCGTCTTGATGCCCTTGGAAGTCCG
modifications: expressed or natural sequence
B23: RA395 (nucleic acid)
DNA: GCGCGTCCTGGATTCGCGGAAACGCGTACATCCAGCTGACGAGTCCCAAATAGGAGAATACCAGCATCGTCTTGATGCCCTTGGAAGTCTCGACGAAACGCGC
modifications: expressed or natural sequence
B24: RA402 (nucleic acid)
DNA: GCGCGTCCTGGATTCGAGAATACCAGCATCGTCTTGATGCCCTTGGAAGTCTCGCGCGGAAACGCGTACATCCAGCTGACGAGTCCCAAATAGGACGAAACGCGC
modifications: expressed or natural sequence
B25: RA407 (nucleic acid)
DNA: GCGCGTCCTGGATTCGCGGAAACGCGTACATCCAGCTGACGAGTCCCAAATAGGACGGAATACCAGCATCGTCTTGATGCCCTTGGAAGTCCGAAACGCGC
modifications: expressed or natural sequence
B26: RA411 (nucleic acid)
DNA: GCGCGTCCTGGATTCGCGGAAACGCGTACATCCAGCTGACGAGTCCCAAATAGCGAGAATACCAGCATCGTCTTGATGCCCTTGGAAGTCTCGGACGAAACGCGC
modifications: expressed or natural sequence
B27: RA038 (nucleic acid)
DNA: GCGCGTCCTGGATTCGCGGAAACGCGTACATCAGAATACCAGCATCGTCTTGATGCCCTTGGAAGTCTCAGCTGACGAGTCCCAAATAGGACGAAACGCGC
modifications: expressed or natural sequence
B28: RA039 (nucleic acid)
DNA: B27 DNA with A33G, T68C
modifications: expressed or natural sequence
B29: RA040 (nucleic acid)
DNA: GCGCGTCCTGGATTCGCGAGAATACCAGCATCGTCTTGATGCCCTTGGAAGTCTGAAACGCGTACATCCAGCTGACGAGTCCCAAATAGGACGAAACGCGC
modifications: expressed or natural sequence

system: Renilla luciferase RNA; test: Barcoded aptazyme variant library screen: un-cleaved Renilla luciferase RNA by barcode read counts, HEK293-T cells; assay type: cell-based; details: un-cleaved Renilla luciferase RNA by barcode read counts; with 1 mM theophylline (ON) over without theophylline (OFF); HEK293-T cells; triplicate
Outline: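 Barcode sequencing of cDNA versus DNA, normalized per aptazyme, gave the un-cleaved Renilla luciferase RNA fraction and fold-change with versus without theophylline (triplicates). Library: T3H48 ribozyme with one of seven theophylline aptamer variants inserted at each position, placed in the Renilla 3′ UTR of a dual-luciferase vector.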

Fold change in RNA expression between the ON state and the OFF state, 0.7:
B1
B2
B3
B4
B5
B6
B7
B9
B11
B12
B13
B14
B15
B16
B17
B18
B21
B22
B23
B24
B25
B26

Fold change in RNA expression between the ON state and the OFF state, 0.8:
B8
B10
B19
B20

same assay, conditions: un-cleaved Renilla luciferase RNA, HEK293-T cells cultured with 1 mM theophylline (ON) over without theophylline (OFF); barcode read counts, triplicate

Fold change in RNA expression between the ON state and the OFF state, 2.1 fold:
B29

Fold change in RNA expression between the ON state and the OFF state, 2.2 fold:
B27
B28
